Starred links: 1 amine or outer side, 2 acyl side, 3 side chain; linkers in the order of their positions; H or OH if unused. Non-standard residues stand in square brackets, D forms with d. Groups on a side chain read outwards from the residue. No end group written: not given here. *: point of attachment. C20 diacid = O=C(O)CCCCCCCCCCCCCCCCCCC(=O)*; γGlu = O=C(O)[C@H](CCC(=O)[*:2])N[*:1]; Ac4c = NC1(C(=O)O)CCC1; AEEA = NCCOCCOCC(=O)O; Ac3c = NC1(C(=O)O)CC1; Aib = CC(C)(N)C(=O)O

From patent EP4745153A1, “GLP-1, GIP AND GCG RECEPTOR […] USE THEREOF” (Jiangsu Hengrui Pharmaceuticals Co., Ltd., priority 2023, dated 2025) come the findings set out here.

The chains are these.
T1: human glucose-dependent insulinotropic polypeptide receptor (human, UniProt P48546 22-466)
T1 sequence (looked up): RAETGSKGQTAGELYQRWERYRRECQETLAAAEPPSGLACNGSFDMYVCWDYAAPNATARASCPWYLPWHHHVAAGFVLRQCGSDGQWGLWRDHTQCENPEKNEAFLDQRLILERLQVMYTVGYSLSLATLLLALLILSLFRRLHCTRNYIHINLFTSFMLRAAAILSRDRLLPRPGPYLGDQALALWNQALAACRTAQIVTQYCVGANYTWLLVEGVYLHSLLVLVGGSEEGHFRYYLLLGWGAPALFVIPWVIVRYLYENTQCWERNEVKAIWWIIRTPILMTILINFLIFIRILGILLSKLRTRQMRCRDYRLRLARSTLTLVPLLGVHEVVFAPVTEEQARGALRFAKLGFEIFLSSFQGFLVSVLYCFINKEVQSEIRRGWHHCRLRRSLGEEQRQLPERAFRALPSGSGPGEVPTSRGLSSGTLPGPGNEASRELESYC

B1: Compound No. 0146 (peptide)
peptide: H[Aib]HGTFTSDLSILLEK([AEEA-AEEA-γGlu-C20 diacid])KAA[Ac3c]EFVEWLLA[dE]GPSSGAPPPS-NH2
modifications: N-terminus assumed
SMILES: CC[C@H](C)[C@H](NC(=O)[C@H](CO)NC(=O)[C@H](CC(C)C)NC(=O)[C@H](CC(=O)O)NC(=O)[C@H](CO)NC(=O)[C@@H](NC(=O)[C@H](Cc1ccccc1)NC(=O)[C@@H](NC(=O)CNC(=O)[C@H](Cc1c[nH]cn1)NC(=O)C(C)(C)NC(=O)[C@@H](N)Cc1c[nH]cn1)[C@@H](C)O)[C@@H](C)O)C(=O)N[C@@H](CC(C)C)C(=O)N[C@@H](CC(C)C)C(=O)N[C@@H](CCC(=O)O)C(=O)N[C@@H](CCCCNC(=O)COCCOCCNC(=O)COCCOCCNC(=O)CC[C@H](NC(=O)CCCCCCCCCCCCCCCCCCC(=O)O)C(=O)O)C(=O)N[C@@H](CCCCN)C(=O)N[C@@H](C)C(=O)N[C@@H](C)C(=O)NC1(C(=O)N[C@@H](CCC(=O)O)C(=O)N[C@@H](Cc2ccccc2)C(=O)N[C@H](C(=O)N[C@@H](CCC(=O)O)C(=O)N[C@@H](Cc2c[nH]c3ccccc23)C(=O)N[C@@H](CC(C)C)C(=O)N[C@@H](CC(C)C)C(=O)N[C@@H](C)C(=O)N[C@H](CCC(=O)O)C(=O)NCC(=O)N2CCC[C@H]2C(=O)N[C@@H](CO)C(=O)N[C@@H](CO)C(=O)NCC(=O)N[C@@H](C)C(=O)N2CCC[C@H]2C(=O)N2CCC[C@H]2C(=O)N2CCC[C@H]2C(=O)N[C@@H](CO)C(N)=O)C(C)C)CC1
B2: Compound No. 0148 (peptide)
peptide: H[Aib]HGTFTSDLSILLEK([AEEA-AEEA-γGlu-C20 diacid])QAA[Ac3c]EFVEWLLA[dE]GPSSGAPPPS-NH2
modifications: N-terminus assumed
SMILES: CC[C@H](C)[C@H](NC(=O)[C@H](CO)NC(=O)[C@H](CC(C)C)NC(=O)[C@H](CC(=O)O)NC(=O)[C@H](CO)NC(=O)[C@@H](NC(=O)[C@H](Cc1ccccc1)NC(=O)[C@@H](NC(=O)CNC(=O)[C@H](Cc1c[nH]cn1)NC(=O)C(C)(C)NC(=O)[C@@H](N)Cc1c[nH]cn1)[C@@H](C)O)[C@@H](C)O)C(=O)N[C@@H](CC(C)C)C(=O)N[C@@H](CC(C)C)C(=O)N[C@@H](CCC(=O)O)C(=O)N[C@@H](CCCCNC(=O)COCCOCCNC(=O)COCCOCCNC(=O)CC[C@H](NC(=O)CCCCCCCCCCCCCCCCCCC(=O)O)C(=O)O)C(=O)N[C@@H](CCC(N)=O)C(=O)N[C@@H](C)C(=O)N[C@@H](C)C(=O)NC1(C(=O)N[C@@H](CCC(=O)O)C(=O)N[C@@H](Cc2ccccc2)C(=O)N[C@H](C(=O)N[C@@H](CCC(=O)O)C(=O)N[C@@H](Cc2c[nH]c3ccccc23)C(=O)N[C@@H](CC(C)C)C(=O)N[C@@H](CC(C)C)C(=O)N[C@@H](C)C(=O)N[C@H](CCC(=O)O)C(=O)NCC(=O)N2CCC[C@H]2C(=O)N[C@@H](CO)C(=O)N[C@@H](CO)C(=O)NCC(=O)N[C@@H](C)C(=O)N2CCC[C@H]2C(=O)N2CCC[C@H]2C(=O)N2CCC[C@H]2C(=O)N[C@@H](CO)C(N)=O)C(C)C)CC1
B3: Compound No. 0145 (peptide)
peptide: H[Aib]HGTFTSDLSILLEK([AEEA-AEEA-γGlu-C20 diacid])QAA[Ac4c]EFVEWLLA[dE]GPSSGAPPPS-NH2
modifications: N-terminus assumed
SMILES: CC[C@H](C)[C@H](NC(=O)[C@H](CO)NC(=O)[C@H](CC(C)C)NC(=O)[C@H](CC(=O)O)NC(=O)[C@H](CO)NC(=O)[C@@H](NC(=O)[C@H](Cc1ccccc1)NC(=O)[C@@H](NC(=O)CNC(=O)[C@H](Cc1c[nH]cn1)NC(=O)C(C)(C)NC(=O)[C@@H](N)Cc1c[nH]cn1)[C@@H](C)O)[C@@H](C)O)C(=O)N[C@@H](CC(C)C)C(=O)N[C@@H](CC(C)C)C(=O)N[C@@H](CCC(=O)O)C(=O)N[C@@H](CCCCNC(=O)COCCOCCNC(=O)COCCOCCNC(=O)CC[C@H](NC(=O)CCCCCCCCCCCCCCCCCCC(=O)O)C(=O)O)C(=O)N[C@@H](CCC(N)=O)C(=O)N[C@@H](C)C(=O)N[C@@H](C)C(=O)NC1(C(=O)N[C@@H](CCC(=O)O)C(=O)N[C@@H](Cc2ccccc2)C(=O)N[C@H](C(=O)N[C@@H](CCC(=O)O)C(=O)N[C@@H](Cc2c[nH]c3ccccc23)C(=O)N[C@@H](CC(C)C)C(=O)N[C@@H](CC(C)C)C(=O)N[C@@H](C)C(=O)N[C@H](CCC(=O)O)C(=O)NCC(=O)N2CCC[C@H]2C(=O)N[C@@H](CO)C(=O)N[C@@H](CO)C(=O)NCC(=O)N[C@@H](C)C(=O)N2CCC[C@H]2C(=O)N2CCC[C@H]2C(=O)N2CCC[C@H]2C(=O)N[C@@H](CO)C(N)=O)C(C)C)CCC1
B4: Compound No. 0149 (peptide)
peptide: H[Aib]HGTFTSDYSILLEK([AEEA-AEEA-γGlu-C20 diacid])QAA[Ac3c]EFVEWLLA[dE]GPSSGAPPPS-NH2
modifications: N-terminus assumed
SMILES: CC[C@H](C)[C@H](NC(=O)[C@H](CO)NC(=O)[C@H](Cc1ccc(O)cc1)NC(=O)[C@H](CC(=O)O)NC(=O)[C@H](CO)NC(=O)[C@@H](NC(=O)[C@H](Cc1ccccc1)NC(=O)[C@@H](NC(=O)CNC(=O)[C@H](Cc1c[nH]cn1)NC(=O)C(C)(C)NC(=O)[C@@H](N)Cc1c[nH]cn1)[C@@H](C)O)[C@@H](C)O)C(=O)N[C@@H](CC(C)C)C(=O)N[C@@H](CC(C)C)C(=O)N[C@@H](CCC(=O)O)C(=O)N[C@@H](CCCCNC(=O)COCCOCCNC(=O)COCCOCCNC(=O)CC[C@H](NC(=O)CCCCCCCCCCCCCCCCCCC(=O)O)C(=O)O)C(=O)N[C@@H](CCC(N)=O)C(=O)N[C@@H](C)C(=O)N[C@@H](C)C(=O)NC1(C(=O)N[C@@H](CCC(=O)O)C(=O)N[C@@H](Cc2ccccc2)C(=O)N[C@H](C(=O)N[C@@H](CCC(=O)O)C(=O)N[C@@H](Cc2c[nH]c3ccccc23)C(=O)N[C@@H](CC(C)C)C(=O)N[C@@H](CC(C)C)C(=O)N[C@@H](C)C(=O)N[C@H](CCC(=O)O)C(=O)NCC(=O)N2CCC[C@H]2C(=O)N[C@@H](CO)C(=O)N[C@@H](CO)C(=O)NCC(=O)N[C@@H](C)C(=O)N2CCC[C@H]2C(=O)N2CCC[C@H]2C(=O)N2CCC[C@H]2C(=O)N[C@@H](CO)C(N)=O)C(C)C)CC1
B5: Compound No. 0147 (peptide)
peptide: H[Aib]HGTFTSDLSILLEK([AEEA-AEEA-γGlu-C20 diacid])KAA[Ac4c]EFVEWLLA[dE]GPSSGAPPPS-NH2
modifications: N-terminus assumed
SMILES: CC[C@H](C)[C@H](NC(=O)[C@H](CO)NC(=O)[C@H](CC(C)C)NC(=O)[C@H](CC(=O)O)NC(=O)[C@H](CO)NC(=O)[C@@H](NC(=O)[C@H](Cc1ccccc1)NC(=O)[C@@H](NC(=O)CNC(=O)[C@H](Cc1c[nH]cn1)NC(=O)C(C)(C)NC(=O)[C@@H](N)Cc1c[nH]cn1)[C@@H](C)O)[C@@H](C)O)C(=O)N[C@@H](CC(C)C)C(=O)N[C@@H](CC(C)C)C(=O)N[C@@H](CCC(=O)O)C(=O)N[C@@H](CCCCNC(=O)COCCOCCNC(=O)COCCOCCNC(=O)CC[C@H](NC(=O)CCCCCCCCCCCCCCCCCCC(=O)O)C(=O)O)C(=O)N[C@@H](CCCCN)C(=O)N[C@@H](C)C(=O)N[C@@H](C)C(=O)NC1(C(=O)N[C@@H](CCC(=O)O)C(=O)N[C@@H](Cc2ccccc2)C(=O)N[C@H](C(=O)N[C@@H](CCC(=O)O)C(=O)N[C@@H](Cc2c[nH]c3ccccc23)C(=O)N[C@@H](CC(C)C)C(=O)N[C@@H](CC(C)C)C(=O)N[C@@H](C)C(=O)N[C@H](CCC(=O)O)C(=O)NCC(=O)N2CCC[C@H]2C(=O)N[C@@H](CO)C(=O)N[C@@H](CO)C(=O)NCC(=O)N[C@@H](C)C(=O)N2CCC[C@H]2C(=O)N2CCC[C@H]2C(=O)N2CCC[C@H]2C(=O)N[C@@H](CO)C(N)=O)C(C)C)CCC1

One assay deals with human glucagon receptor (human, UniProt P47871 26-477). Briefly: cell-based or functional assay.
human glucagon receptor, sequence (P47871 26-477): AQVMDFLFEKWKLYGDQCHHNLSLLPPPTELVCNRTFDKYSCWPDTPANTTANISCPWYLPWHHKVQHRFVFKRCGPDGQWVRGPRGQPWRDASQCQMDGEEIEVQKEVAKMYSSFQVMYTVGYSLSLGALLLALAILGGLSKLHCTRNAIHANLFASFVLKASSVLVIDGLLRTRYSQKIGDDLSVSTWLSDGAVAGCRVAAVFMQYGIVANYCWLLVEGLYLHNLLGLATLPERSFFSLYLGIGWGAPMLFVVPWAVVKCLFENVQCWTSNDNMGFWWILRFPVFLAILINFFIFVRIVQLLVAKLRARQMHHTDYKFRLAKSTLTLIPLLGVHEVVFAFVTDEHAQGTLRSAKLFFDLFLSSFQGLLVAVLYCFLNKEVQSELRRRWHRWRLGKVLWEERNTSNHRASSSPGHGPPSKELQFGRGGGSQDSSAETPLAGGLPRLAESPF
As to B1, the “Activity against human GCGR (EC50 nM)” value was determined as 0.146 nM.

Turning to B2, the “Activity against human GCGR (EC50 nM)” value was found to be 0.549 nM.

For the molecule B3, the “Activity against human GCGR (EC50 nM)” value turned out to be 0.143 nM.

On to B4, for which the “Activity against human GCGR (EC50 nM)” value worked out at 0.301 nM.

Regarding B5, the “Activity against human GCGR (EC50 nM)” value was found to be 0.041 nM.

Another assay addresses T1, human glucose-dependent insulinotropic …. Briefly: cell-based or functional assay.
As to B1, the “Activity against human GIPR (EC50 nM)” value is 0.009 nM.

Turning to B2, the “Activity against human GIPR (EC50 nM)” value amounted to 0.006 nM.

With B3, the “Activity against human GIPR (EC50 nM)” value came out at 0.003 nM.

On to B4, for which the “Activity against human GIPR (EC50 nM)” value amounted to 0.004 nM.

As for B5, the “Activity against human GIPR (EC50 nM)” value was 0.005 nM.

The next assay addresses human glucagon-like peptide-1 receptor (human, UniProt P43220 24-463). Briefly: cell-based or functional assay.
On to B1, for which the “Activity against human GLP-1R (EC50 nM)” value is 0.033 nM.

B2: the “Activity against human GLP-1R (EC50 nM)” value amounted to 0.06 nM.

Turning to B3, the “Activity against human GLP-1R (EC50 nM)” value turned out to be 0.057 nM.

For B4, the “Activity against human GLP-1R (EC50 nM)” value stood at 0.071 nM.

With B5, the “Activity against human GLP-1R (EC50 nM)” value was found to be 0.035 nM.
